For experiment [1], the system named is SaOS2 cells. Put plainly: Inflammatory stimuli (IL1β, LPS) on SaOS2 differentiated with ACM, RT-PCR. The format is cell-based, Human. How it is done: To determine the effect of an external inflammatory factor on the differentiation process of SaOS2 stimulated with ACM, SaOS2 cells were seeded and stimulated with the ACM in the presence and absence of 0.1 ng/ml of IL1 and 100 ng/mL of lipopolysaccharide (LPS). To do this, once the SaOS2 completed the 3-day differentiation with the ACM, these cells were treated with the inflammatory stimuli and were differentiated for a further 48h.
(§1) RNA was extracted using TriReagent® and the RNA extraction Kit E.Z.N.A. Total RNA Kit I® (Omega Bio-Tek Inc., Norcross, GA, USA) following the manufacturer's instructions. The gene expression of bone related markers, inflammatory and adipogenic markers were measured using iTaq Universal SYBR Green Supermix (BioRad Laboratories, Hercules, CA, USA). Relative quantitation was performed using the ΔΔCt Comparative Method. Results are expressed as 2^−ΔΔCt versus unstimulated control or DM.

Experiment [2] relates to SaOS2 cells. Description: SaOS2 differentiation into osteoblasts, gene expression by RT-PCR. It counts as cell-based, Human. Conditions: SaOS2 differentiated into osteoblasts three days, presence or absence of stimulus (ACM; TGFβi 3 μg/mL). The procedure:
(§2) SaOS2 were differentiated for 3 days, C3H10T1/2 for 7 days, and ATDC5 for 14 days. In order to induce cell differentiation, the media were changed three times a week in SaOS2 and ATDC5 cells, starting the process 24 h post-culture. In these cells, the same medium was used in all the changes made. Regarding the C3H10T1/2, two media were used to differentiate them into adipocytes: the induction medium which was changed after 6 h post-culture, and the maintenance medium which replaced the induction medium after 4 days. after culture. All cells were seeded in 24-well plates (Thermo Fisher Scientific, Waltham, MA, USA).
After 24 h SaOS2 post-culture, the medium was changed to ACM, and they were differentiated for 3 days.
(§3) SaOS2, C3H10T1/2, and ATDC5 cells were differentiated in the presence or absence of 3 μg/mL of human recombinant protein transforming growth factor beta-induced (TGFβi), similar concentration to TGFβi-blood levels. It should be noted that this protein was added newly in every medium change corresponding to the differentiation of each cell line.
as §1

Experiment [3] deals with C3H10T1/2 cells. Description: C3H10T1/2 differentiation into adipocytes, gene expression by RT-PCR. The format is cell-based. Conditions: C3H10T1/2 differentiated into adipocytes seven days. The procedure:
as §2
Regarding the C3H10T1/2, due to the difference in the composition of their differentiation media and that of the SaOS2, we proceeded with the concentration and purification of the 2 mL DM and ACM proteins, using the filter units 3 kDa Amicon® Ultra-0.5 mL Centrifugal Filters Ultracel 3K (Millipore, Burlington, Massachusetts, USA) following the supplier's instructions. Once the process was finished, the pellets were resuspended in the differentiation medium corresponding to the cell line, filtered through a 0.2 μm filter (Thermo Fisher Scientific, Wlatham, MA, USA), and cells were differentiated for 7 days as was previously described. For cell differentiation stimulated with the NCM, NCM was concentrated using Amicon® Ultra-0.5 mL Centrifugal Filters Ultracel 3K 3 kDa centrifugal filter units, according to the supplier's specifications. Then, they were resuspended with the C3H10T1/2 differentiation medium and filtered through a 0.2 μm filter. Finally, C3H10T1/2 cells were differentiated into adipocytes in the presence and absence of NCM for 7 days, as previously described.
as §3, §1

Experiment [4] relates to C3H10T1/2 cells. Put plainly: RNA quantification and cell counting. It counts as cell-based. Conditions: C3H10T1/2 differentiated to adipocytes seven days, TGFβi 3 μg/mL. An excerpt:
The RNA of the differentiated C3H10T1/2 was quantified using a NanoDrop One® spectrophotometer (Thermo Fisher Scientific, Wlatham, MA, USA).
Moreover, microscopic photos of the different conditions were taken. Subsequently, the photograph was divided into 3 rectangles of equal size and positioned in the same place in the images. The live cells were counted, and the number of cells was compared with the rest of the samples.

The next experiment concerns ATDC5 cells. Description: ATDC5 differentiation into chondrocytes, gene expression by RT-PCR. It counts as cell-based. Conditions: TGFβi 3 μg/mL. The procedure:
as §2, §3, §1

Setting [5] is: SaOS2 differentiated three days with ACM, then IL1β 0.1 ng/mL for 48h.
Setting [6] is: presence or absence of stimulus (ACM; NCM; TGFβi 3 μg/mL).
[7] abbreviates: ATDC5 differentiated into chondrocytes three, seven, fourteen days.

For IL1β: inflammatory stimulus, 0.1 ng/ml, in the experiment with SaOS2 cells [1] (setting [5]), the “BMP2 gene expression induced by ACM” value is “increased”, the CCL2 gene expression entry is given as “increased”, the IL6 gene expression result is reported as “increased” and the “LIF gene expression induced by ACM” value is listed as “increased”. In the experiment on SaOS2 cells [1] (setting [5]), the SPP1 gene expression entry is on record as “did not modify” and the VCAM gene expression entry is reported as “increased”.

On to lipopolysaccharide [LPS], for which the “inflammatory profile or bone metabolism” value with SaOS2 cells [1] (SaOS2 differentiated three days with or without ACM, then LPS 100 ng/ml for 48h) was “did not alter”.

B1: TGFβi: human recombinant protein transforming growth factor beta-induced, used at 3 μg/mL (protein)
chain: GPAKSPYQLVLQHSRLRGRQHGPNVCAVQKVIGTNRKYFTNCKQWYQRKICGKSTVISYECCPGYEKVPGEKGCPAALPLSNLYETLGVVGSTTTQLYTDRTEKLRPEMEGPGSFTIFAPSNEAWASLPAEVLDSLVSNVNIELLNALRYHMVGRRVLTDELKHGMTLTSMYQNSNIQIHHYPNGIVTVNCARLLKADHHATNGVVHLIDKVISTITNNIQQIIEIEDTFETLRAAVAASGLNTMLEGNGQYTLLAPTNEAFEKIPSETLNRILGDPEALRDLLNNHILKSAMCAEAIVAGLSVETLEGTTLEVGCSGDMLTINGKAIISNKDILATNGVIHYIDELLIPDSAKTLFELAAESDVSTAIDLFRQAGLGNHLSGSERLTLLAPLNSVFKDGTPPIDAHTRNLLRNHIIKDQLASKYLYHGQTLETLGGKKLRVFVYRNSLCIENSCIAAHDKRGRYGTLFTMDRVLTPPMGTVMDVLKGDNRFSMLVAAIQSAGLTETLNREGVYTVFAPTNEAFRALPPRERSRLLGDAKELANILKYHIGDEILVSGGIGALVRLKSLQGDKLEVSLKNNVVSVNKEPVAEPDIMATNGVVHVITNVLQPPANRPQERGDELADSALEIFKQASAFSRASQRSVRLAPVYQKLLERMKH
Consider B1, for which, in the experiment on SaOS2 cells [2], the AXIN2 gene expression entry is given as “did not modify”, the BMP2 gene expression result is on record as “increased”, the BMP4 gene expression entry is reported as “did not modify” and the CCL2 gene expression entry was “increased”. In addition, in the experiment with SaOS2 cells [2], the CD44 gene expression result is recorded as “did not modify”, the GPNMB gene expression result is given as “did not modify”, the LIF gene expression result is given as “did not modify” and the OPG gene expression result was “did not modify”. Also, in the experiment with SaOS2 cells [2], the PDGFRβ gene expression result is recorded as “did not modify”, the PDGFβ gene expression entry is on record as “did not modify”, the RANKL gene expression entry is given as “did not modify” and the RANKL/OPG ratio result is given as “did not modify”. Also, in the experiment with SaOS2 cells [2], the RUNX2 gene expression result is given as “did not modify”, the SPP1 gene expression result is on record as “increased”, the TGFβi gene expression entry is “increased” and the VCAM gene expression entry is reported as “increased”. In the experiment on SaOS2 cells [2] (listed as TGFBi recombinant), the BMP2 gene expression result is “partial recapitulation”, the CCL2 gene expression entry is reported as “partial recapitulation”, the SPP1 gene expression result is given as “partial recapitulation” and the VCAM gene expression entry is “partial recapitulation”. Further, in the experiment with C3H10T1/2 cells [3] (setting [6]), the ADIPOQ gene expression entry is reported as “reduced”, the AXIN2 gene expression result is reported as “no modifications”, the CCL2 gene expression entry is “no modifications” and the CD44 gene expression result was “increase”. In the experiment on C3H10T1/2 cells [3] (setting [6]), the FABP4 gene expression entry was “reduced”, the GPNMB gene expression result was “no modifications”, the IL6 gene expression result is reported as “no modifications” and the PLIN2 gene expression result is given as “reduced”. Also, in the experiment on C3H10T1/2 cells [3] (setting [6]), the PPARG gene expression entry is “reduction was statistically significant”, the RUNX2 gene expression result was “increase”, the SPP1 gene expression result is given as “increase” and the VCAM gene expression entry is listed as “increase”. Moreover, the PPARG gene expression entry in the experiment with C3H10T1/2 cells [3] (presence or absence of stimulus (ACM; NCM; TGFβi 3 μg/mL), listed as TGFBi) is recorded as “significantly decreased”. Moreover, the TGFβi gene expression result with C3H10T1/2 cells [3] (presence or absence of stimulus (ACM; TGFβi 3 μg/mL)) is reported as “increase”. In the experiment with C3H10T1/2 cells [4], the “cell proliferation: amount of RNA” value is given as “increase” and the “cell proliferation: number of cells” value is “increase”. Also, in the experiment with C3H10T1/2 cells [4] (listed as TGFBi), the “cell proliferation: amount of RNA” value is reported as “differences on cell proliferation were observed” and the “cell proliferation: number of cells” value is given as “differences on cell proliferation were observed”. In addition, in the experiment on ATDC5 cells (setting [7]), the COL2A1 gene expression result was “decrease”, the COLX gene expression result was “decrease” and the SOX9 gene expression entry is reported as “decrease”. Also, the SPP1 expression result in the experiment with ATDC5 cells (early stages of ATDC5 differentiation) is “increased”.

These data come from patent publication US20260227386A1, “DIAGNOSIS AND TREATMENT OF NEUROGENIC HETEROTOPIC OSSIFICATION” (SERVIZO GALEGO DE SAÚDE, priority 2023, published 2026).
